# Data taken from US20230183713A1, “SITE-SPECIFIC RECOMBINASES FOR EFFICIENT AND SPECIFIC GENOME EDITING” (TECHNISCHE UNIVERSITÄt DRESDEN, published 2023).
# Residue numbers refer to the chain shown, from its start. Numbers in names are those of the source.
# T1: Cre recombinase monomer with Q311R mutation
# T1 chain: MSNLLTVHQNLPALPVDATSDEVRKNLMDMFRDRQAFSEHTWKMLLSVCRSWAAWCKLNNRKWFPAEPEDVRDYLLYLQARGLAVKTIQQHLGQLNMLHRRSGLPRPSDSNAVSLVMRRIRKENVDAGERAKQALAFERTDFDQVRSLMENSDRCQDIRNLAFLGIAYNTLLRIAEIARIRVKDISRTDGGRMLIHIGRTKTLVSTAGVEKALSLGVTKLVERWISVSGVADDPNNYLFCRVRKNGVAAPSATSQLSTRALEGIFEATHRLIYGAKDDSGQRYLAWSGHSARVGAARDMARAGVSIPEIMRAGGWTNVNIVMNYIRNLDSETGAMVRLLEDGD
# T2: Cre recombinase monomer with Y324L mutation
# T2 chain: T1 chain with R311Q, Y324L
# T3: Cre recombinase monomer with Y324K mutation
# T3 chain: T1 chain with R311Q, Y324K
# T4: Cre recombinase monomer with W315M mutation
# T4 chain: T1 chain with R311Q, W315M
# T5: Cre recombinase monomer with Y324M mutation
# T5 chain: T1 chain with R311Q, Y324M
# T6: Cre recombinase monomer with Y324V mutation
# T6 chain: T1 chain with R311Q, Y324V
# T7: Cre recombinase monomer with E176M mutation
# T7 chain: T1 chain with E176M, R311Q
# T8: Cre recombinase monomer with Y324T mutation
# T8 chain: T1 chain with R311Q, Y324T
# T9: Cre recombinase monomer with W315T mutation
# T9 chain: T1 chain with R311Q, W315T
# T10: Cre recombinase monomer with W315I mutation
# T10 chain: T1 chain with R311Q, W315I
# T11: Cre recombinase monomer with Y324F mutation
# T11 chain: T1 chain with R311Q, Y324F
# T12: Cre recombinase monomer with E176H mutation
# T12 chain: T1 chain with E176H, R311Q
# B1: Cre recombinase monomer with K201P mutation (protein)
# chain: T1 chain with K201P, R311Q
# B2: Cre recombinase monomer with W315K mutation (protein)
# chain: T1 chain with R311Q, W315K
# B3: Cre recombinase monomer with H289K mutation (protein)
# chain: T1 chain with H289K, R311Q
# B4: Cre recombinase monomer with R292Y mutation (protein)
# chain: T1 chain with R292Y, R311Q
# B5: Cre recombinase monomer with W315Q mutation (protein)
# chain: T1 chain with R311Q, W315Q
# B6: Cre recombinase monomer with R173Q mutation (protein)
# chain: T1 chain with R173Q, R311Q
# B7: Cre recombinase monomer with K201W mutation (protein)
# chain: T1 chain with K201W, R311Q
# B8: Cre recombinase monomer with W315M mutation (protein)
# chain: T1 chain with R311Q, W315M
# B9: Cre recombinase monomer with W315G mutation (protein)
# chain: T1 chain with R311Q, W315G
# B10: Cre recombinase monomer with W315L mutation (protein)
# chain: T1 chain with R311Q, W315L
# B11: Cre recombinase monomer with R292M mutation (protein)
# chain: T1 chain with R292M, R311Q
# B12: Cre recombinase monomer with K201V mutation (protein)
# chain: T1 chain with K201V, R311Q
# B13: Cre recombinase monomer with K201Y mutation (protein)
# chain: T1 chain with K201Y, R311Q
# B14: Cre recombinase monomer with R173C mutation (protein)
# chain: T1 chain with R173C, R311Q
# Key:
# [1] = target: T1, Cre recombinase monomer with Q311R …
# [2] = target: T2, Cre recombinase monomer with Y324L …
# [3] = target: T3, Cre recombinase monomer with Y324K …
# [4] = target: T4, Cre recombinase monomer with W315M …
# [5] = target: T5, Cre recombinase monomer with Y324M …
# [6] = target: T6, Cre recombinase monomer with Y324V …
# [7] = target: T7, Cre recombinase monomer with E176M …
# [8] = target: T8, Cre recombinase monomer with Y324T …
# [9] = target: T9, Cre recombinase monomer with W315T …
# [10] = target: T10, Cre recombinase monomer with W315I …
# [11] = target: T11, Cre recombinase monomer with Y324F …
# [12] = target: T12, Cre recombinase monomer with E176H …
protein,measurement,setting,value
B1,Median dimer activity (recombination on loxP),[1],95%
same,Median dimer activity (recombination on loxP),[2],59%
B2,Median dimer activity (recombination on loxP),[3],99%
B3,Median dimer activity (recombination on loxP),[1],95%
same,Median dimer activity (recombination on loxP),[4],74%
B4,Median dimer activity (recombination on loxP),[5],90%
same,Median dimer activity (recombination on loxP),[1],96%
B5,Median dimer activity (recombination on loxP),[6],97%
B6,Median dimer activity (recombination on loxP),[7],32%
same,Median dimer activity (recombination on loxP),[1],92%
B7,Median dimer activity (recombination on loxP),[1],95%
same,Median dimer activity (recombination on loxP),[4],49%
same,Median dimer activity (recombination on loxP),[8],68%
B8,Median dimer activity (recombination on loxP),[2],71%
B9,Median dimer activity (recombination on loxP),[5],35%
same,Median dimer activity (recombination on loxP),[6],37%
B10,Median dimer activity (recombination on loxP),[9],50%
B11,Median dimer activity (recombination on loxP),[1],96%
same,Median dimer activity (recombination on loxP),[10],42%
B12,Median dimer activity (recombination on loxP),[1],84%
same,Median dimer activity (recombination on loxP),[4],64%
same,Median dimer activity (recombination on loxP),[11],48%
B13,Median dimer activity (recombination on loxP),[1],90%
same,Median dimer activity (recombination on loxP),[6],26%
B14,Median dimer activity (recombination on loxP),[7],27%
same,Median dimer activity (recombination on loxP),[1],91%
same,Median dimer activity (recombination on loxP),[12],65%
